Laboratory results reported in patent US20240100152A1 (UNIVERSITY OF PITTSBURGH OF THE COMMONWEALTH SYSTEM OF …, published 2024).

Biological target: T1, human α7 nicotinic acetylcholine receptor (α7nAChR) expressed on HEK293T/17 cells (human, UniProt P36544 23-502)
T1 construct: whole, on cells
Test: live-cell fluorescent labeling of transfected HEK293 cells

T1 sequence (P36544 23-502): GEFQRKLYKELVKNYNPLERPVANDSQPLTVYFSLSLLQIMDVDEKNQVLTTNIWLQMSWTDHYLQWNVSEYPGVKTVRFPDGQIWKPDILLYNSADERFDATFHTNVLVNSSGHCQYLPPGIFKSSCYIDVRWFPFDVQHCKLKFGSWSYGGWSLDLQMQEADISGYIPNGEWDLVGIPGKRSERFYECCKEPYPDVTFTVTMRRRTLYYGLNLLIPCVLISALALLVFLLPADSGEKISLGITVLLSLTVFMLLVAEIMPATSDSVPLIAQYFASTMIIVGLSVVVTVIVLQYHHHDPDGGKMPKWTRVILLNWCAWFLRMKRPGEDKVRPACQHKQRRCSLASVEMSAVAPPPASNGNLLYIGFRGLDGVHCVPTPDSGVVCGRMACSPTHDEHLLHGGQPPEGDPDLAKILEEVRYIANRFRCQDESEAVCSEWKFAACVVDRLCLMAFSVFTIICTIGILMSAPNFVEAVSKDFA

B1: α-bungarotoxin Alexa Fluor 594 conjugate (ligand)
chain: IVCHTTATSPISAVTCPPGENLCYRKMWCDAFCSSRGKVVELGCAATCPSKKPYEEVTCCSTDKCNPHPKQRPG
binding result: binds
